Data set [1] addresses T1, YB-1 (B-TEP, purified from Rat1 nuclear extract) (Rattus norvegicus, UniProt P62961 SEQ:1-322). As to the kind of experiment: EMSA; 10 ng YB-1; complex supershifted by anti-YB-1; anti-GATA1/GATA2 as controls; 25 C. The conditions noted are these: label: 32P (EMSA) or biotin (pull-down). As to the method: To further examine the interaction of YB-1 with the PTP1B enhancer, an EMSA was performed using purified YB-1 (10 ng) and the double-stranded DNA ³²P-labelled −155/−132 probe (see methods described above). A YB-1/DNA probe complex was detected by incubating the complex with the anti-YB-1 antibody (see above). Included as controls were anti-GATA1 (sc266X) and anti-GATA2 (sc-9008X) antibodies (Santa Cruz Biotechnology, Inc., Santa Cruz, Calif.). Purified YB-1 was incubated without antibody or separately with each antibody for 1 hour at 4° C., followed by addition of the DNA probe for 20 minutes at 25° C.
In general terms: In EMSA bound probe runs differently from free probe, usually more slowly.

In another data set the target is GST-YB-1 (UniProt P67809 P67809:1-324). As to the kind of experiment: EMSA; 1 or 10 ng GST-YB-1; binding shown in figure. The settings on record: tags: N-terminal GST fusion, expressed in E. coli BL21 (plasmid gift of K. Kohno). An excerpt:
Complex formation of YB-1 with the PTP1B enhancer was confirmed using purified YB-1 from a different source. Expression plasmids for GST and for GST-YB-1 (gift from Dr. K. Kohno) (see Izumi et al., Nucleic Acids Res. 29:1200-07 (2001)) were each separately transfected into E. coli BL21 cells. Recombinant proteins were expressed and purified (see Frangioni and Neel, Anal. Biochem. 210:179-87 (1993)) and analyzed by SDS-PAGE as shown in FIG. 9B (left panel). The interaction between GST-tagged YB-1 and the PTP1B enhancer probe was analyzed by EMSA. Purified GST or GST-YB-1 proteins (1 or 10 ng) were combined with double-stranded DNA ³²P-labelled probe −167/−132 (see above) in the absence or presence of unlabeled double-stranded DNA probe −167/−132 or the deletion mutant probe −167/−132 (Δ−155/−144) (see above), which were tested as competitors of complex formation.

Data set [2] has as its target T1, YB-1 (B-TEP, purified from Rat1 nuclear …). Put plainly: pulldown; purified on -167/-132 affinity column, eluted at 0.8 M NaCl; complex B in EMSA. On the procedure:
To purify proteins within the TEP sequence complexes, nuclear extracts were subjected to SP-Sepharose chromatography followed by DNA-affinity chromatography (FIG. 3A). Nuclear extracts (approximately 50 mg) were obtained from Rat1 cells as described above. The extracts were dialyzed against starting buffer (0.1 M NaCl in 20 mM HEPES pH 7.9, 20 mM NaF, 1 mM Na₃VO₄, 1 mM Na₄P₂O₇, 0.125 μM okadaic acid, 1 mM EDTA, 1 mM EGTA, 1 mM DTT, 0.5 mM PMSF, 1 μg/ml leupeptin, 1 μg/ml aprotinin, 1 μg/ml pepstatin, 0.2% NP-40, 5% glycerol) and then applied to SP Sepharose (20 ml) (Pharmacia Biotech, Piscataway, N.J.) equilibrated with the starting buffer. Proteins were eluted in a stepwise manner with 0.2, 0.3, 0.4, 0.6, and 0.8 M NaCl containing nuclear extraction buffer. Each fraction (5 μl aliquots) was assayed by EMSA using ³²P-labelled probes as described above. Fractions containing Complex B (detected by the ³²P-labeled −167/−132 probe, see FIG. 2B) were dialyzed to 0.2 M NaCl containing starting buffer and then applied to a double-stranded DNA-conjugated affinity column. The sequence of the DNA used for affinity chromatography corresponded to nucleotides −167 to −132 from the transcription start site as follows:
The DNA was biotinylated according to standard methods. […]

T1 sequence (P62961 other isoform, or with tags, fused parts or gaps): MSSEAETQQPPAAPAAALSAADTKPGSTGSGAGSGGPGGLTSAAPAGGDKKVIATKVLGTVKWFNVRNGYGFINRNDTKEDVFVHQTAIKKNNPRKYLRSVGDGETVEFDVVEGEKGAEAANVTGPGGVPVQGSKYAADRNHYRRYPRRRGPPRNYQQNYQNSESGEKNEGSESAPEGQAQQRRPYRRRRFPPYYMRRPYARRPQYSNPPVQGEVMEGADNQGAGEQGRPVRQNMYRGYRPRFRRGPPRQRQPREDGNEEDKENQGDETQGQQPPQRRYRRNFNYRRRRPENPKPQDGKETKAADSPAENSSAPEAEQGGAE
Sequence of GST-YB-1 (P67809 whole entry, the tested form may be a part, one chain of several): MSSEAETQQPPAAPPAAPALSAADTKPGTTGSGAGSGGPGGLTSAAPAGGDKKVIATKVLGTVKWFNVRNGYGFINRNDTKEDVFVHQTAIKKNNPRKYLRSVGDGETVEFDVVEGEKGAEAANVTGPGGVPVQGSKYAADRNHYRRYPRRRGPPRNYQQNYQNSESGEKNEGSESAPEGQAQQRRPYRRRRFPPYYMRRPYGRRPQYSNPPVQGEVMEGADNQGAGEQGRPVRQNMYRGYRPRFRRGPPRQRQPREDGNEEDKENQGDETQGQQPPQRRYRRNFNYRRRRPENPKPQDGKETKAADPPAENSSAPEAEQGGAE

B1: PTP1B enhancer -155/-132 (dsDNA)
DNA 1: AGATATCTCGCGGTGCTGGGGCCA
DNA 2: TGGCCCCAGCACCGCGAGATATCT
Consider B1, for which the binding result in data set [1] is “binds”.

B2: PTP1B enhancer -167/-132 (dsDNA)
DNA 1: ACGCGCGCTATTAGATATCTCGCGGTGCTGGGGCCA
DNA 2: TGGCCCCAGCACCGCGAGATATCTAATAGCGCGCGT
Consider B2, for which the binding result (with GST-YB-1; in data set [2]) was “binds” in each case.

(Values after patent US20030223975, “Transcriptional regulation of PTP-1B” (Cold Spring Harbor Laboratory, published 2003).)
